Results reported in article PMC4108320, “Two Structurally Different Dienelactone Hydrolases (TfdEI and TfdEII) from Cupriavidus necator JMP134 Plasmid pJP4 Catalyse Cis- and Trans-Dienelactones with Similar Efficiency” (PLoS ONE, 2014).

B1: TfdEI (Cupriavidus pinatubonensis JMP134) (protein)
chain: MLSDGVEITSRSGGRFGAYLGKPTTDSAPIVVIAQEIFGITPFIRETVEWLVGAGFGCVCPDLYWRQAPNIELDANVPSEREQALALFRDFDMEAGVNDLSCAIEYARALPFSNGRVAVVGYCLGGALAFDVAARSLADCSIGYYGVGLEKKVSLVPAITRPAMFHMGTKDHYVTEEARSILEEHFGRNKNLSLHWYPVGHSFARSSSPNFDQAATTVANARTLELLAMLKDPS
notes: full-length tfdEI ORF (705 bp, 234 aa) in pET21b BamHI/HindIII; stop codon in reverse primer; E. coli BL21(DE3); about 25 kDa, monomeric
B2: TfdEII (Cupriavidus pinatubonensis JMP134) (protein)
chain: MCHDTAPALFPRTASTGSIDGAICALCYAGATRGPRLLVLPDIYGCNAFYRGYAAYLAEQGAGEVLLVDPFAAFGELATVTREAAFQRRHRLADRAYVEELIDFIDGQRIEGVVGFCLGGLFVFELARQQVVSRLVAYYPFPQGLENRDPLDVPFDYLPALRSRHTVIVGDDDALLGTQNLQRLQAQARANDAIDLHIMNGAGHGFLADLESPDTARAAVAKRGLRIGTTTLLGG
notes: full-length tfdEII ORF (708 bp, 235 aa) in pET21b BamHI/HindIII; stop codon in reverse primer; E. coli BL21(DE3); about 25 kDa, monomeric

Substrate: O=C(O)/C=C1/C=CC(=O)O1
Test: purified protein
Type: biochemical, Cupriavidus pinatubonensis
Conditions: Tris-Cl pH 7.0, 37 °C, 0.5 µM enzyme, 1-1000 µM substrate

Protein | Km [µM] | Vmax [µM/min]
B1 | 84 | 9.09
B2 | 178 | 8.38
